Absorbance (ELISA as in Example 4) and absorbance (412 nm filter) data for 1 substance are collected here from patent US20030219457A1.

The target in experiment [1] is Crotalus durissus terrificus venom. The experiment is described as follows: ELISA, C.d.t. venom-coated wells; dilution 1:3125. In general terms: In an ELISA, binding on a coated surface is turned into a signal by an enzyme label.
Experiment [2] has the same target. As to the kind of experiment: ELISA, C.d.t. venom-coated wells; dilution 1:312,500.
The target is the same in experiment [3]. As to the kind of experiment: ELISA, C.d.t. venom-coated wells; dilution 1:5.
Experiment [4] shares this target. The experiment is described as follows: ELISA, wells coated with 5 µg/ml C.d.t. venom; dilution 1:625.
For experiment [5] the target is unchanged. The experiment is described as follows: ELISA, wells coated with 5 µg/ml C.d.t. venom; dilution 1:5.
The target is the same in experiment [6]. The experiment is described as follows: ELISA, C.d.t. venom-coated wells; dilution 1:25.
Experiment [7] has the same target. As to the kind of experiment: ELISA, C.d.t. venom-coated wells; dilution 1:625.
Experiment [8] has the same target. As to the kind of experiment: ELISA, C.d.t. venom-coated wells; dilution 1:62,500.
Experiment [9] has the same target. As to the kind of experiment: ELISA, wells coated with 5 µg/ml C.d.t. venom; dilution 1:125.
Experiment [10] has the same target. As to the kind of experiment: ELISA, C.d.t. venom-coated wells; dilution 1:125.
The target is the same in experiment [11]. The experiment is described as follows: ELISA, wells coated with 5 µg/ml C.d.t. venom; dilution 1:3125.
For experiment [12] the target is unchanged. As to the kind of experiment: ELISA, wells coated with 5 µg/ml C.d.t. venom; dilution 1:25.
Experiment [13] shares this target. The experiment is described as follows: ELISA, wells coated with 5 µg/ml C.d.t. venom; undiluted.

preimmune IgY (antibody): the absorbance (ELISA as in Example 4) in [1] was below 0 OD; in experiment [3], below 0 OD; in experiment [4] it was 0 OD; in experiment [5] it was below 0 OD; in experiment [6], 0.016 OD; in experiment [7], below 0 OD. Moreover, the absorbance (ELISA as in Example 4) in [9] is 0.003 OD; in [10], below 0 OD; in [11], 0.002 OD; in [12], 0 OD; in [13], 0.003 OD. Moreover, the absorbance (412 nm filter) amounted to 0.01 OD in experiment [2] and 0.001 OD in experiment [8].
